One experiment deals with PlGF (UniProt P49763). Briefly: ELISA. The conditions noted are these: Fc fusion. On the technique in general: An ELISA detects its analyte on a solid surface through an enzyme-linked reagent.
For the next experiment, the target named is hVEGFA165 (human) (UniProt P15692). The experiment is described as follows: ELISA. Particulars: Fc fusion.
The target of experiment [1] is PD-L1 (coated in the ELISA) (not stated (human or mouse PD-L1 coated)) (UniProt Q9NZQ7). The experiment is described as follows: ELISA; human PD-L1.
PD-L1 (coated in the ELISA) (not stated (human or mouse PD-L1 coated)), sequence (Q9NZQ7 19-290): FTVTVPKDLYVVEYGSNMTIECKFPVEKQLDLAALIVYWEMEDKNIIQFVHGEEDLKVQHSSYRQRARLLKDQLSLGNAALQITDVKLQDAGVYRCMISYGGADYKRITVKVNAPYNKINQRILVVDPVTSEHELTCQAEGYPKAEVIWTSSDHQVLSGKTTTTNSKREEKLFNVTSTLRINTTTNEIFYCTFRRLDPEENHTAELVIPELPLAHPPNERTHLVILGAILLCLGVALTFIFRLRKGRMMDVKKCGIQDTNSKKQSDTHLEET
Experiment [2] shares this target. Briefly: ELISA; mouse PD-L1. The conditions noted are these: Fc fusion.

pEC50: −log10 of the molar value.

Ate-Grab, sequence (P17948 whole entry, looked up): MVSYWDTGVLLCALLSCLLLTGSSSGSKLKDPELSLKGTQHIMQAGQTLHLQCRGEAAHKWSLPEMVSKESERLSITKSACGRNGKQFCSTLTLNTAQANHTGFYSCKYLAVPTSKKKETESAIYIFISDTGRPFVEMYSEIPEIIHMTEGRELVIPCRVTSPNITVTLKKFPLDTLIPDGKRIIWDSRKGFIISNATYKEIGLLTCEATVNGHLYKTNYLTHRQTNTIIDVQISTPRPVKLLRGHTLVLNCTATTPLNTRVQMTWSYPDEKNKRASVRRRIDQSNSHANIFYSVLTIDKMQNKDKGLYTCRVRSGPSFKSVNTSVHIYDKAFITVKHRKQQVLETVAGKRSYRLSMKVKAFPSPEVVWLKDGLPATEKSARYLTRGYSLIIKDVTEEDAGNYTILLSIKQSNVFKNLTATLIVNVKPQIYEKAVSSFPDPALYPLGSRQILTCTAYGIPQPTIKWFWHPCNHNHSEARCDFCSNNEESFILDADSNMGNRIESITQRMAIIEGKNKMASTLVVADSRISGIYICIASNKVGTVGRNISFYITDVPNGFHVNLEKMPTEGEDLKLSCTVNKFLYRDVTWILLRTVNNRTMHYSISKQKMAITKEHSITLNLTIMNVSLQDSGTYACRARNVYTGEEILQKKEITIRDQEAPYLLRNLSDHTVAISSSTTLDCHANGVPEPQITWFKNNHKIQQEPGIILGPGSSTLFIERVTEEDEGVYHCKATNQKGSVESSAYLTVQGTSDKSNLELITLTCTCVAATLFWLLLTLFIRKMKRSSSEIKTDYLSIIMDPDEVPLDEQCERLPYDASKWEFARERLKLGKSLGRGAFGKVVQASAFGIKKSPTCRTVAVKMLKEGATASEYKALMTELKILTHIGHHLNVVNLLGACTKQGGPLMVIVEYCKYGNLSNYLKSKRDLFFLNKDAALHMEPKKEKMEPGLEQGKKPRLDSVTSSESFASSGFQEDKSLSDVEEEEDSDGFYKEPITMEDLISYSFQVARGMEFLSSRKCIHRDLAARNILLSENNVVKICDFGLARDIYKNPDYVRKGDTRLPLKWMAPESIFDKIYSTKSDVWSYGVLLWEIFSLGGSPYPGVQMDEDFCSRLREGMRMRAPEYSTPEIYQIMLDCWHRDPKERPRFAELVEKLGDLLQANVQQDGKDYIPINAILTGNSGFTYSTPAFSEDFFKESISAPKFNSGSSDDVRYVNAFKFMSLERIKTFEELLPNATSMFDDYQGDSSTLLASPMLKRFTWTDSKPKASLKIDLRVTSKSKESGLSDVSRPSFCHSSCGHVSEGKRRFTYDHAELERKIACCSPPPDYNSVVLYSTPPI
VEGF-Grab, sequence (P17948 whole entry, looked up): as above
hVEGFA165 (human), sequence (P15692 other isoform, or with tags, fused parts or gaps): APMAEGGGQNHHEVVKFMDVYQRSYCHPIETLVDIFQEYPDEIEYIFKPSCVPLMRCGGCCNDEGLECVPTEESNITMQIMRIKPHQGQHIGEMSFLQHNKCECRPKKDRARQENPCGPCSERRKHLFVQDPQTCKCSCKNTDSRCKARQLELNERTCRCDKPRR
PlGF, sequence (P49763 19-221): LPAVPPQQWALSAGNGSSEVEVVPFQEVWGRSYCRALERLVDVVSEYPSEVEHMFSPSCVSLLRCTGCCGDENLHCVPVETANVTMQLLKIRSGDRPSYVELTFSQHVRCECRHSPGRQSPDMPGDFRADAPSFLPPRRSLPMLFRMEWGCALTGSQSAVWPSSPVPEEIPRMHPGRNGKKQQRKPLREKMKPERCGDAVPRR

Usually pEC50 stands for the negative decadic logarithm of the EC50, by convention in mol/L. Read a high pEC50 as a small EC50. VEGF-Grab (from UniProt P17948): the values for the pEC50 with PlGF and with hVEGFA165 (human) were 9.21 and 9.16, respectively.
In turn, Atezolizumab showed a negative-log EC50 (pEC50) in experiment [1] of 9.97.
For the substance Ate-Grab (from UniProt P17948), the pEC50 in experiment [2] was 9.43; in experiment [1] (Fc fusion), 9.65; with PlGF, 9.03; with hVEGFA165 (human) it was 9.19.
